Data on 167 variants can be found in the Human Domainome abundance scans (Beltran et al. 2025).

± gives the uncertainty stated by the source.

B1: Storkhead-box protein 2, residues 64 to 141; numbered along this chain, Q9P2F5 (parent)
chain: SPISQSQFIPLGEILCLAISAMNSARKPVTQEALMEHLTTCFPGVPTPSQEILRHTLNTLVRERKIYPTPDGYFIVTP

The variants in this data set derive from B1. As to the kind of experiment: abundance fitness (aPCA) (normalised: wild type 0, dead -1); higher = more abundant; growth selection in yeast, the domain comes from the species named. Conditions: Homo sapiens.
Regarding M35H, the abundance fitness stood at 0.018 ± 0.098.

With M35P, the abundance fitness is -0.361 ± 0.075.

On to N23T, for which the abundance fitness was -0.144 ± 0.066.

As to N23C, the abundance fitness is -0.226 ± 0.076.

With N23I, the abundance fitness was -0.296 ± 0.083.

In the case of N23G, the abundance fitness is -0.126 ± 0.033.

Turning to N23F, the abundance fitness is -0.535 ± 0.12.

On to S24I, for which the abundance fitness turned out to be 0.018 ± 0.11.

Consider S24Q, for which the abundance fitness turned out to be 0.026 ± 0.076.

In the case of S24M, the abundance fitness is -0.125 ± 0.057.

Regarding T40V, the abundance fitness is -0.013 ± 0.051.

On to T40A, for which the abundance fitness was -0.158 ± 0.057.

For T40E, the abundance fitness is -0.048 ± 0.09.

Regarding P46N, the abundance fitness is -0.124 ± 0.12.

In the case of P46D, the abundance fitness was -0.081 ± 0.075.

Consider P46E, for which the abundance fitness is -0.067 ± 0.039.

For the variant G44Q, the abundance fitness was -0.055 ± 0.068.

G44R: the abundance fitness amounted to 0.117 ± 0.032.

For G44V, the abundance fitness was -0.111 ± 0.035.

Consider G44W, for which the abundance fitness is -0.103 ± 0.056.

As for G44C, the abundance fitness was -0.046 ± 0.064.

On to S4I, for which the abundance fitness was -0.079 ± 0.073.

Turning to S4H, the abundance fitness worked out at 0.008 ± 0.11.

For S4P, the abundance fitness was determined as 0.007 ± 0.045.

Take S4N: the abundance fitness was -0.038 ± 0.1.

Regarding L15A, the abundance fitness was -0.034 ± 0.15.

As for P2D, the abundance fitness stood at 0.124 ± 0.095.

Regarding P2H, the abundance fitness worked out at 0.051 ± 0.12.

Turning to P2M, the abundance fitness stood at 0.013 ± 0.065.

Take P2R: the abundance fitness is 0.019 ± 0.029.

Regarding P2Q, the abundance fitness is 0.103 ± 0.067.

As for G72K, the abundance fitness was -0.272 ± 0.14.

With G72M, the abundance fitness was -0.209 ± 0.081.

As to G72I, the abundance fitness was -0.613 ± 0.17.

Regarding G72C, the abundance fitness was -0.383 ± 0.077.

As for F42T, the abundance fitness was 0.176 ± 0.17.

On to F42D, for which the abundance fitness was 0.273 ± 0.28.

For F42N, the abundance fitness amounted to 0.106 ± 0.21.

In the case of F42W, the abundance fitness is -0.086 ± 0.047.

Turning to F42A, the abundance fitness was -0.05 ± 0.12.

Turning to E36Q, the abundance fitness is 0.029 ± 0.075.

In the case of E36S, the abundance fitness was -0.001 ± 0.048.

For E36C, the abundance fitness is -0.064 ± 0.067.

Turning to E36F, the abundance fitness is -0.158 ± 0.1.

As to Y67K, the abundance fitness amounted to 0.083 ± 0.11.

As for Y67W, the abundance fitness is -0.049 ± 0.049.

Regarding Y67I, the abundance fitness came out at 0.02 ± 0.12.

Consider Y67T, for which the abundance fitness was -0.05 ± 0.058.

Turning to Q31E, the abundance fitness worked out at 0.01 ± 0.043.

As for Q31F, the abundance fitness is -0.095 ± 0.073.

Turning to Q31R, the abundance fitness is -0.061 ± 0.03.

T47P: the abundance fitness was -0.191 ± 0.049.

As for T47F, the abundance fitness was -0.273 ± 0.055.

As for T47N, the abundance fitness was -0.151 ± 0.1.

Take T47R: the abundance fitness was -0.018 ± 0.032.

As for T47D, the abundance fitness is -0.277 ± 0.067.

With Q50I, the abundance fitness was determined as 0.047 ± 0.12.

Regarding Q50V, the abundance fitness was -0.131 ± 0.059.

Turning to Q50C, the abundance fitness was -0.076 ± 0.1.

On to Q50Y, for which the abundance fitness turned out to be 0.174 ± 0.19.

For S1T, the abundance fitness is -0.486 ± 0.14.

S1H: the abundance fitness was -0.103 ± 0.2.

Regarding S1V, the abundance fitness was -0.354 ± 0.07.

Turning to K27S, the abundance fitness is -0.045 ± 0.04.

K27N: the abundance fitness was -0.156 ± 0.14.

As for K27E, the abundance fitness is -0.054 ± 0.075.

Turning to K27Q, the abundance fitness was determined as 0.064 ± 0.077.

On to V61Y, for which the abundance fitness is -0.208 ± 0.13.

With V61P, the abundance fitness was -1.05 ± 0.14.

For the variant V61L, the abundance fitness was -0.05 ± 0.046.

For the variant V61H, the abundance fitness is -0.122 ± 0.097.

As to V61S, the abundance fitness was -0.008 ± 0.043.

For V61M, the abundance fitness was 0.052 ± 0.067.

Take V61A: the abundance fitness was determined as 0.029 ± 0.042.

Consider T30R, for which the abundance fitness was -0.095 ± 0.035.

As to T30L, the abundance fitness was -0.218 ± 0.036.

In the case of T30N, the abundance fitness is -0.352 ± 0.12.

In the case of T30I, the abundance fitness is -0.211 ± 0.066.

As for T30S, the abundance fitness worked out at 0.002 ± 0.038.

On to T30Y, for which the abundance fitness was -0.142 ± 0.072.

G12C: the abundance fitness is -0.135 ± 0.32.

With L57W, the abundance fitness was -0.269 ± 0.076.

As for L57C, the abundance fitness is -0.202 ± 0.083.

With L57T, the abundance fitness is -0.193 ± 0.058.

As for L57R, the abundance fitness was -1.11 ± 0.12.

With L57M, the abundance fitness was -0.066 ± 0.069.

As to P70F, the abundance fitness was -0.081 ± 0.07.

Consider P70T, for which the abundance fitness turned out to be 0.037 ± 0.041.

With P70R, the abundance fitness is 0.05 ± 0.037.

On to P70N, for which the abundance fitness was 0.036 ± 0.15.

P70D: the abundance fitness came to 0.091 ± 0.063.

Regarding P70M, the abundance fitness was -0.097 ± 0.077.

On to P70E, for which the abundance fitness was -0.004 ± 0.078.

For T56G, the abundance fitness was -0.051 ± 0.043.

As for T56M, the abundance fitness was 0.058 ± 0.085.

Regarding T56K, the abundance fitness was -0.052 ± 0.1.

For the variant T56V, the abundance fitness is -0.042 ± 0.044.

As to T56E, the abundance fitness was -0.087 ± 0.087.

Consider I52V, for which the abundance fitness amounted to 0.035 ± 0.044.

Turning to I52A, the abundance fitness is -0.085 ± 0.045.

Take I52C: the abundance fitness was -0.038 ± 0.094.

As for I52E, the abundance fitness is -0.042 ± 0.057.

For the variant I52H, the abundance fitness was determined as 0.011 ± 0.092.

As for I52M, the abundance fitness stood at 0.056 ± 0.064.

In the case of L38A, the abundance fitness was -0.386 ± 0.07.

On to L38S, for which the abundance fitness is -0.613 ± 0.066.

Consider P48L, for which the abundance fitness was -0.259 ± 0.039.

As to P48K, the abundance fitness was -0.44 ± 0.15.

P48T: the abundance fitness was -0.357 ± 0.054.

With T39F, the abundance fitness was -0.099 ± 0.078.

As for T39E, the abundance fitness was -0.137 ± 0.14.

In the case of T39R, the abundance fitness worked out at 0.016 ± 0.042.

For the variant T39M, the abundance fitness was -0.117 ± 0.084.

As for T39S, the abundance fitness is -0.043 ± 0.044.

Take I66H: the abundance fitness is -1 ± 0.24.

With I66E, the abundance fitness was -1.08 ± 0.21.

With I66A, the abundance fitness was -0.173 ± 0.05.

On to I66Y, for which the abundance fitness was -0.971 ± 0.27.

I66W: the abundance fitness was -0.847 ± 0.079.

Consider R26C, for which the abundance fitness is -0.115 ± 0.089.

Regarding R26D, the abundance fitness is -0.011 ± 0.083.

R26S: the abundance fitness was -0.04 ± 0.05.

On to R26T, for which the abundance fitness is -0.005 ± 0.077.

Take K65H: the abundance fitness came to 0.013 ± 0.084.

Turning to K65R, the abundance fitness is -0.031 ± 0.038.

Regarding K65D, the abundance fitness was -0.443 ± 0.089.

Take K65I: the abundance fitness was -0.21 ± 0.21.

Regarding E13N, the abundance fitness was found to be 0.02 ± 0.11.

In the case of E13M, the abundance fitness was -0.206 ± 0.1.

Turning to E13P, the abundance fitness is -0.059 ± 0.085.

On to E13W, for which the abundance fitness is -0.331 ± 0.068.

Regarding E13S, the abundance fitness was -0.039 ± 0.057.

Regarding C16F, the abundance fitness is -0.074 ± 0.11.

As for C16K, the abundance fitness was -0.155 ± 0.12.

As to C16L, the abundance fitness was -0.019 ± 0.041.

Consider C16E, for which the abundance fitness is -0.148 ± 0.087.

For C16V, the abundance fitness is -0.074 ± 0.051.

In the case of L17E, the abundance fitness came out at 0.039 ± 0.059.

L17D: the abundance fitness was -0.069 ± 0.081.

For the variant L17C, the abundance fitness was -0.116 ± 0.074.

In the case of L17M, the abundance fitness is -0.041 ± 0.07.

Turning to L17S, the abundance fitness came to 0.008 ± 0.042.

On to L17G, for which the abundance fitness was -0.016 ± 0.036.

On to Q7F, for which the abundance fitness was -0.065 ± 0.067.

Turning to Q7H, the abundance fitness is -0.122 ± 0.085.

For the variant Q7W, the abundance fitness was -0.152 ± 0.049.

On to Q7P, for which the abundance fitness is -0.021 ± 0.045.

As for I75K, the abundance fitness was -0.219 ± 0.1.

For the variant I75H, the abundance fitness is -0.172 ± 0.17.

In the case of I75F, the abundance fitness was -0.109 ± 0.073.

Turning to I75S, the abundance fitness was 0.038 ± 0.049.

On to A18C, for which the abundance fitness is -0.001 ± 0.076.

For the variant A18T, the abundance fitness is -0.099 ± 0.081.

Consider A18K, for which the abundance fitness was -0.282 ± 0.11.

For A18R, the abundance fitness is -0.148 ± 0.049.

Consider Q5F, for which the abundance fitness is -0.109 ± 0.074.

As for S20Q, the abundance fitness is 0.019 ± 0.087.

In the case of S20Y, the abundance fitness was -0.181 ± 0.096.

On to S20D, for which the abundance fitness is -0.116 ± 0.17.

S20P: the abundance fitness is -0.405 ± 0.074.

For the variant Y73D, the abundance fitness was -0.136 ± 0.14.

As for Y73L, the abundance fitness was -0.029 ± 0.042.

Take Y73T: the abundance fitness was -0.174 ± 0.11.

As for Y73E, the abundance fitness is -0.089 ± 0.077.

Consider Y73R, for which the abundance fitness was -0.055 ± 0.048.

On to Y73W, for which the abundance fitness is -0.041 ± 0.06.

Take Y73Q: the abundance fitness was -0.078 ± 0.054.
